The target in test [1] is T1, human C5a (human, UniProt P01031 678-751).
T1 construct: domain: C5a; Purified human C5a (Hycult) in ELISA; recombinant human C5a in the Transwell assay; also called free human C5a; recombinant human complement C5a
T1 sequence (looked up): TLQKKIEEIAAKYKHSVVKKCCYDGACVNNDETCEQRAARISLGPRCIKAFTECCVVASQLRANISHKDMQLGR
The test is described as follows: ELISA, plate coated with human C5a. As to the method:
Polystyrene microtiter plates were coated with purified human C5 or C5a (50 ng/well, Hycult) in PBS at 37° C. for 1 hr. After aspirating the C5 or C5a solution, wells were blocked with PBS containing 1% BSA in PBS at room temperature for 1 hour. Wells without C5 or C5a coating served as background controls. Different concentration of 7A12 mAb or control anti-C5 mAb or chimeric 7A12, 50 μl/well in blocking solution, were added to the wells. Following 1 hour incubation at room temperature, the wells were extensively washed with PBST. Human C5 or C5a-bound mAb was detected by the addition of anti-mouse IgG HRP 1:4000 dilution in blocking solution, which was allowed to incubate for 1 hour at RT. After washing with PBST, the plate was developed with HRP substrate for 6-10 min. The reaction was stopped with 2N H2SO4 and plate was read at 450 nm in a micro plate reader.
(§1) An ELISA plate was coated with human C5a or mouse C5a. After incubation with serially diluted 7A12 or the control anti-C5 mAb, bound mAb was detected by HRP-conjugated anti-mouse IgG. […] Since mAb 7A12 reacts with the whole C5 protein (as shown in FIG. 1), it can be concluded that mAb 7A12 binds both the C5a moiety of native human C5 and free human C5a. On the other hand, no binding of the control anti-C5 mAb to human C5a was seen, as depicted in FIG. 3B.

Test [2] concerns the target T2, mouse C5a (mouse, UniProt P06684 679-755).
T2 construct: domain: C5a; also called purified mouse C5a
T2 sequence (looked up): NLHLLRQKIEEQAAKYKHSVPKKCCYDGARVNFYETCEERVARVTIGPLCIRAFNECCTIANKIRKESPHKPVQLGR
The test is described as follows: ELISA, plate coated with mouse C5a. How it is done: as §1
(In an ELISA, binding on a coated surface is turned into a signal by an enzyme label.)

B1: monoclonal anti-C5a antibody designated mAb 7A12 (antibody, V domains shown)
VH: QVQLQQSDAELVKPGASVKISCKVSGYTFTDHIIHWMNQRPEQGLEWIGYIYPRDGNTNYNENFKGKATLTADKSSSTAYMQLNSLTSEDSAVYFCARERNLEYFDYWGQGTTLTVSS
VL: DIVLTQSPASLAVSLGQRATISCKASQSVDYDGDNYMNWYQQKPGQPPKLLIYAASNLDSGIPARFSGSGSGTDFTLNIHPVEEEDAATYYCQQSNEDPYTFGGGTKLEIKR
notes: also called 7A12 mAb
As to B1, the binding result is listed as “binds” in test [1] and “no binding” in test [2].

The values are drawn from patent US20220153824A1 (University of Pennsylvania, published 2022).
